Source: patent US20250346646A1, “COMPOUNDS USEFUL TO TREAT METABOLIC DISORDERS” (President and Fellows of Harvard College, priority 2016, published 2025)

Key:
glucagon/aP2 complex = glucagon/aP2 complex (Homo sapiens, UniProt P01275+P15090); assay: Blitz binding to tethered aP2 in glucagon plus mAb solution; conditions: biotinylated aP2 on streptavidin probes
Experimental: Binding affinity studies were performed using a Blitz instrument (Pall Life Sciences, Menlo Park, CA). Biotinylated aP2 was attached to streptavidin probes.

[1] = tested on: diet induced obese (DIO) mice; assay: Antibody treatment of obese mice on high-fat diet (fasting glucose, GTT, ITT); format: in vivo, mouse; conditions: obese mice on HFD
Experimental: FIG. 9B is bar graph showing blood glucose levels (mg/dL) at week 0 (open bars) or week 4 (solid bars) in obese mice on a high-fat diet (HFD) treated with vehicle or anti-aP2 monoclonal antibodies CA33, CA13, CA15, CA23, or H3. Blood glucose levels were measured after 6 hours of day-time food withdrawal. *p<0.05, **p<0.01.
The test was performed after 2 weeks of treatment in obese mice on HFD with vehicle (diamonds) or anti-aP2 monoclonal antibodies (0.75 g/kg glucose)(CA33; squares)(CA15; triangles). *p<0.05.
FIG. 12A is a line graph showing glucose levels (mg/dL) vs. time (minutes) in a glucose tolerance test (GTT) following two weeks of selective antibody treatment using high affinity antibodies (CA13, CA15, CA23, and H3) versus vehicle control in high fat diet fed mice.
FIG. 12B is a line graph showing glucose levels (mg/dl) vs. time (minutes) in an insulin tolerance test (ITT) following three weeks of selective antibody treatment using high affinity antibodies (CA13, CA15, CA23, and H3) versus vehicle control in high fat diet fed mice.
Animal care and experimental procedures were performed with approval from animal care committees of Harvard University. Male mice (leptin-deficient (ob/ob) and diet induced obese (DIO) mice with C57BL/6J background) were purchased from The Jackson Laboratory (Bar Harbor, ME) and kept on a 12-hour light/dark cycle. […] Body weights were measured weekly in the fed state. Blood glucose levels were measured weekly after 6 hours of food withdrawal or after 16 hours overnight fast. […]
Twenty-four hours post transfection a bolus feed was added and the temperature was reduced to 32° C. and maintained for the duration of the culture period (12-14 days). […] The UV absorbance peak at A280 nm was collected during elution from the column using 0.1M sodium citrate pH 3.4 elution buffer and then neutralized to pH 7.4 by addition of 2M Tris-HCl pH 8.5. […]

[2] = target: T1, glucagon/aP2 complex in wild-type serum (Mus musculus, UniProt P04117); assay: Co-immunoprecipitation of glucagon and aP2 from serum; conditions: pre-incubation of wild-type serum with antibody
T1 construct: from tissue; host or cells: serum of wild-type mice
T1 sequence (P04117 1-132): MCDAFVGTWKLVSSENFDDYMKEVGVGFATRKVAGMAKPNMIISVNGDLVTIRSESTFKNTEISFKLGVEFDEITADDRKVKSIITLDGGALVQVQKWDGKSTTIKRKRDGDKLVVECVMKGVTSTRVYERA

human glucagon receptor = human glucagon receptor (Homo sapiens, UniProt P47871); assay: cAMP-response element luciferase reporter in CHO-K1 cells expressing human GCGR-GFP; format: cell-based; conditions: 1 ug/ml aP2, 25 nM glucagon, 20 μg/ml antibody; 4 hours post stimulation
Experimental: Bar graphs represent mean±standard deviation (s.d.), n=4-5 per group. *P<0.05, **P<0.01, ***P≤0.001, ****P≤0.0001, ns P>0.05. Multiple group comparisons were done using one-way ANOVA statistics with Tukey post-test correction. Graphs show data as mean±standard error of mean (s.e.m.), analyzed using two-way ANOVA.
During cloning hexahistadine and WELQ protease site was added for protein purification. Murine aP2 gene was cloned into pet21+ vector after the hexahistadine tag and TEV protease site for ease of purification.
Plasmids were transfected using Lipofectamine (Invitrogen) according to manufacturer's instructions. Transiently transfected cells were grown in appropriate selection antibiotics where applicable for stable cell line generation. Following three passages under selection media, single cell colonies were picked and expanded for experimentation after validation.

ob/ob mice = assay: CA33 treatment of leptin-deficient ob/ob mice; format: in vivo, mouse
Experimental: FIG. 11C is a bar graph showing fasting blood glucose levels (mg/dl) in ob/ob mice before (open bars) and after (solid bars) 3 weeks of CA33 antibody or vehicle treatment (n=10 mice per group). **p<0.01.
The test was performed after 2 weeks of vehicle (triangles) or CA33 antibody treatment (squares) in aP2−/− mice. *p<0.05.
(§1) The test was performed after 3 weeks of vehicle (triangles) or CA33 antibody treatment (squares) in aP2−/− mice.
as §1
Animal care and experimental procedures were performed with approval from animal care committees of Harvard University. Male mice (leptin-deficient (ob/ob) and diet induced obese (DIO) mice with C57BL/6J background) were purchased from The Jackson Laboratory (Bar Harbor, ME) and kept on a 12-hour light/dark cycle. DIO mice with C57BL/6J background were maintained on high-fat diet (60% kcal fat, Research Diets, Inc., D12492i) for 12 to 15 weeks before starting treatment except in clamp studies, for which they were on HFD for 20 weeks. Leptin-deficient (ob/ob) mice were maintained on regular chow diet (RD, PicoLab 5058 Lab Diet). Animals used were 18 to 31 weeks of age for dietary models and 9 to 12 weeks of age for the ob/ob model. In all experiments, at least 7 mice in each group were used, unless otherwise stated in the text. The mice were treated with 150 μl PBS (vehicle) or 1.5 mg/mouse (˜33 mg/kg) anti-aP2 monoclonal antibody in 150 μl PBS by twice weekly subcutaneous injections for 3 to 5 weeks. Before and after the treatment, blood samples were collected from the tail after 6 hours of daytime food withdrawal. Body weights were measured weekly in the fed state. Blood glucose levels were measured weekly after 6 hours of food withdrawal or after 16 hours overnight fast. After 2 weeks of treatment, glucose tolerance tests were performed by intraperitoneal glucose injections (0.75 g/kg for DIO, 0.5 g/kg for ob/ob mice). After 3 weeks of treatment, insulin tolerance tests were performed in DIO mice by intraperitoneal insulin injections (0.75 IU/kg). After 5 weeks of treatment, hyperinsulinemic-euglycemic clamp experiments were performed in DIO mice as previously described (Furuhashi et al., (2007) Nature 447, 959-965; Maeda et al., (2005) Cell metabolism 1, 107-119).
Finally, the effect of CA33 in a second model of severe genetic obesity and insulin resistance using leptin-deficient ob/ob mice was examined. Strikingly, hyperglycemia in the ob/ob mice was normalized in CA33-treated mice compared to controls (FIG. 11C).

Sequence of glucagon/aP2 complex (P15090 whole entry): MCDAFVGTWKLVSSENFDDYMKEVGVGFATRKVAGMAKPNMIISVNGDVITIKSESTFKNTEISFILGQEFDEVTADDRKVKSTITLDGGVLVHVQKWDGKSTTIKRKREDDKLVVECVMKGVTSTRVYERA
Sequence of glucagon/aP2 complex (P01275 53-81 limits assumed): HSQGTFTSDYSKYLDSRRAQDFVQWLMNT
Sequence of human glucagon receptor (P47871 26-477): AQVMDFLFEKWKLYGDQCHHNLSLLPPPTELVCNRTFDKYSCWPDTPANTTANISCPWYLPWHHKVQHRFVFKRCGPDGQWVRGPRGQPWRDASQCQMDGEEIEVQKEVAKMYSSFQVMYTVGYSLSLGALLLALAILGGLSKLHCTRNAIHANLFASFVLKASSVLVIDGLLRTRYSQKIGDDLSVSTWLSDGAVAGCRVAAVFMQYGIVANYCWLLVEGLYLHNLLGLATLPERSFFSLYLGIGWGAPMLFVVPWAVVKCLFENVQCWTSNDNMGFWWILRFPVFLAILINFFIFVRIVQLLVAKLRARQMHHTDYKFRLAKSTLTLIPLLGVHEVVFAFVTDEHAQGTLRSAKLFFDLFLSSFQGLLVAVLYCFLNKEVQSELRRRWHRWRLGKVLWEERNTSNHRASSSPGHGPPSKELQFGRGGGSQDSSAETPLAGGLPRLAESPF

B1: CA33: low-affinity anti-aP2 monoclonal antibody, rabbit-mouse hybrid, produced and purified by UCB; VL Seq. ID 28, VH Seq. ID 41 (antibody, V domains shown)
VH: QSVEESGGRLVTPGTPLTLTCTVSGFSLSTYYMSWVRQAPGKGLEWIGIIYPSGSTYCASWAKGRFTISKASTTVDLKITSPTTEDTATYFCARPDNDGTSGYLSGFGLWGQGTLVTVSS
VL: DVVMTQTPASVSEPVGGTVTIKCQASEDISRYLVWYQQKPGQPPKRLIYKASTLASGVPSRFKGSGSGTDFTLTISDLECDDAATYYCQCTYGTYAGSFFYSFGGGTEVVVE
modifications: Rabbit Ab 909 VH region; Rabbit Ab 909 VL-region
B1 was tested, and the “Binding to the glucagon/aP2 complex” value (glucagon/aP2 complex) was “strong binding”, the Fasting blood glucose ([1]; 33 mg/kg s.c. twice weekly, week 4 vs week 0, 6 hours food withdrawal) was “significantly decreased” and the “Glucose tolerance (GTT)” value ([1]; after 2 weeks of treatment, 0.75 g/kg glucose) was “significantly improved glucose tolerance”. The “Insulin sensitivity (insulin tolerance test)” value ([1]; after 3 weeks of treatment) was “markedly improved insulin sensitivity”, the “Co-immunoprecipitation of glucagon and aP2” value [2] was “prevents co-immunoprecipitation” and the “Effect on glucagon potentiation by aP2 (cAMP response, luminescence)” value (human glucagon receptor) was “blocks the glucagon potentiation effect of aP2”. The Insulin levels (ob/ob mice; ob/ob mice) was “lower insulin levels”, the Glucagon response (ob/ob mice; ob/ob mice after 3 weeks of treatment) was “blunts the glucagon response” and the “Hyperglycemia (fasting blood glucose)” value (ob/ob mice; ob/ob mice, 3 weeks of treatment, vs controls) was “normalized”. The “Glucose tolerance (GTT)” value (ob/ob mice; ob/ob mice, after 2 weeks, vs vehicle) was “significantly improved glucose tolerance”.
